This passage reports abundance fitness results from the Human Domainome abundance scans (Beltran et al. 2025).

The chains are these.
B1: Unconventional myosin-Ie, residues 1051 to 1108; numbered along this chain, Q12965 (parent)
chain: PQVPQCKALYAYDAQDTDELSFNANDIIDIIKEDPSGWWTGRLRGKQGLFPNNYVTKI

± gives the uncertainty stated by the source.

Variants of B1 are the subject of the data set. Nature of the data set: abundance fitness (aPCA) (normalised: wild type 0, dead -1); higher = more abundant; growth selection in yeast, the domain comes from the species named. To be noted: Homo sapiens.
Regarding PQVPQCKALYAYDAQDTDELSFNANDIIDIIKEDPSGWWTGRVRGKQGLFPNNYVTKI [L43V], the abundance fitness is -0.063 ± 0.037.
Under PQVPQCKALYAYDAQDTDELSFNANDIIDIIKEDPSGWWTGRERGKQGLFPNNYVTKI [L43E] stands -0.701 ± 0.068; under PQVPQCKALYAYDAQDTDELSFNANDIIDIIKEDPSGWWTGRFRGKQGLFPNNYVTKI [L43F], 0.014 ± 0.07.
Consider PQVPQCKALYAYDAQDTDELSFNANDIIDIIKEDPSGWWTGRSRGKQGLFPNNYVTKI [L43S], for which the abundance fitness is -0.269 ± 0.051.
As for PQVPQCKALYAYDAQDTDELSFNANDIIDIIKEDPSGWWTGRLSGKQGLFPNNYVTKI [R44S], the abundance fitness is -0.08 ± 0.055.
For the variant PQVPQCKALYAYDAQDTDELSFNANDIIDIIKEDPSGWWTGRLNGKQGLFPNNYVTKI [R44N], the abundance fitness was 0.068 ± 0.088.
To PQVPQCKALYAYDAQDTDELSFNANDIIDIIKEDPSGWWTGRLDGKQGLFPNNYVTKI [R44D] belongs -0.019 ± 0.073; to PQVPQCKALYAYDAQDTDELSFNANDIIDIIKEDPSGWWTGRLQGKQGLFPNNYVTKI [R44Q], -0.071 ± 0.036.
PQVPQCKALYAYDAQDTDELSFNANDIIDIIKEDPSGWWTGRLGGKQGLFPNNYVTKI [R44G]: the abundance fitness was -0.137 ± 0.06.
With PQVPQCKALYAYDAQDTDELSFNANDIIDIIKEDPSGWWTGRLLGKQGLFPNNYVTKI [R44L], the abundance fitness is -0.164 ± 0.049.
To PQVPQCKALYAYDAQDTDELSFNANDIIDIIKEDPSGWWTGRLKGKQGLFPNNYVTKI [R44K] belongs -0.181 ± 0.096.
For the variant PQVPQCKALYAYDAQDTDELSFNANDIIDIIKEDPSGWWTGRLAGKQGLFPNNYVTKI [R44A], the abundance fitness was -0.074 ± 0.051.
For PQVPQCKALYAYDAQDTDELSFNANDIIDIIKEDPSGWWTGRLHGKQGLFPNNYVTKI [R44H], the abundance fitness is -0.236 ± 0.12.
To PQVPQCKALYAYDAQDTDELSFNANDIIDIIKEDPSGWWTGRLIGKQGLFPNNYVTKI [R44I] belongs -0.759 ± 0.25; to PQVPQCKALYAYDAQDTDELSFNANDIIDIIKEDPSGWWTGRLFGKQGLFPNNYVTKI [R44F], -0.134 ± 0.096; to PQVPQCKALYAYDAQDTDELSFNANDIIDIIKEDPSGWWTGRLMGKQGLFPNNYVTKI [R44M], -0.179 ± 0.057.
In the case of PQVPQCKALYAYDAQDTDELSFNANDIIDIIKEDPSGWWTGRLEGKQGLFPNNYVTKI [R44E], the abundance fitness is -0.319 ± 0.097.
To PQVPQCKALYAYDAQDTDELSFNANDIIDIIKEDPSGWWTGRLVGKQGLFPNNYVTKI [R44V] belongs -0.19 ± 0.069; to PQVPQCKALYAYDAQDTDELSFNANDIIDIIKEDPSGWWTGRLWGKQGLFPNNYVTKI [R44W], -0.467 ± 0.12.
For PQVPQCKALYAYDAQDTDELSFNANDIIDIIKEDPSGWWTGRLCGKQGLFPNNYVTKI [R44C], the abundance fitness is -0.139 ± 0.077.
Under PQVPQCKALYAYDAQDTDELSFNANDIIDIIKEDPSGWWTGRLRGDQGLFPNNYVTKI [K46D] stands -0.33 ± 0.12.
In the case of PQVPQCKALYAYDAQDTDELSFNANDIIDIIKEDPSGWWTGRLRGHQGLFPNNYVTKI [K46H], the abundance fitness is -0.172 ± 0.11.
PQVPQCKALYAYDAQDTDELSFNANDIIDIIKEDPSGWWTGRLRGPQGLFPNNYVTKI [K46P]: the abundance fitness is -0.715 ± 0.21.
To PQVPQCKALYAYDAQDTDELSFNANDIIDIIKEDPSGWWTGRLRGSQGLFPNNYVTKI [K46S] belongs -0.073 ± 0.064; to PQVPQCKALYAYDAQDTDELSFNANDIIDIIKEDPSGWWTGRLRGTQGLFPNNYVTKI [K46T], -0.146 ± 0.084; to PQVPQCKALYAYDAQDTDELSFNANDIIDIIKEDPSGWWTGRLRGGQGLFPNNYVTKI [K46G], -0.411 ± 0.074.
To PQVPQCKALYAYDAQDTDELSFNANDIIDIIKEDPSGWWTGRLRGCQGLFPNNYVTKI [K46C] belongs -0.099 ± 0.051; to PQVPQCKALYAYDAQDTDELSFNANDIIDIIKEDPSGWWTGRLRGRQGLFPNNYVTKI [K46R], -0.01 ± 0.04.
With PQVPQCKALYAYDAQDTDELSFNANDIIDIIKEDPSGWWTGRLRGIQGLFPNNYVTKI [K46I], the abundance fitness was -0.351 ± 0.11.
As to PQVPQCKALYAYDAQDTDELSFNANDIIDIIKEDPSGWWTGRLRGFQGLFPNNYVTKI [K46F], the abundance fitness was -0.364 ± 0.18.
For the variant PQVPQCKALYAYDAQDTDELSFNANDIIDIIKEDPSGWWTGRLRGLQGLFPNNYVTKI [K46L], the abundance fitness is -0.152 ± 0.066.
As to PQVPQCKALYAYDAQDTDELSFNANDIIDIIKEDPSGWWTGRLRGMQGLFPNNYVTKI [K46M], the abundance fitness came to 0.054 ± 0.08.
Regarding PQVPQCKALYAYDAQDTDELSFNANDIIDIIKEDPSGWWTHRLRGKQGLFPNNYVTKI [G41H], the abundance fitness was -0.83 ± 0.28.
Under PQVPQCKALYAYDAQDTDELSFNANDIIDIIKEDPSGWWTLRLRGKQGLFPNNYVTKI [G41L] stands -0.474 ± 0.18.
For the variant PQVPQCKALYAYDAQDTDELSFNANDIIDIIKEDPSGWWTFRLRGKQGLFPNNYVTKI [G41F], the abundance fitness was -0.756 ± 0.37.
With PQVPQCKALYAYDAQDTDELSFNANDIIDIIKEDPSGWWTARLRGKQGLFPNNYVTKI [G41A], the abundance fitness is -0.8 ± 0.045.
PQVPQCKALYAYDAQDTDELSFNANDIIDIIKEDPSGWWTRRLRGKQGLFPNNYVTKI [G41R]: the abundance fitness is -0.906 ± 0.1.
Under PQVPQCKALYAYDAQDTDELSFNANDIIDIIKEDPSGWWTYRLRGKQGLFPNNYVTKI [G41Y] stands -0.88 ± 0.45; under PQVPQCKALYAYDAQDTDELSFNANDIIDIIKEDPSGWWTDRLRGKQGLFPNNYVTKI [G41D], -0.899 ± 0.11.
To PQVPQCKALYAYDAQDTDELSFNANDIIDIIKEDPSGWWTKRLRGKQGLFPNNYVTKI [G41K] belongs -1.03 ± 0.28.
As for PQVPQCKALYAYDAQDTDELSFNANDIIDIIKEDPSGWWTCRLRGKQGLFPNNYVTKI [G41C], the abundance fitness is -0.813 ± 0.059.
To PQVPQCKALYAYDAQDTDELSFNANDIIDIIKEDPSGWWTSRLRGKQGLFPNNYVTKI [G41S] belongs -0.998 ± 0.12; to PQVPQCKALYAYDAQDTDELSFNANDIIDIIKEDPSGWWTNRLRGKQGLFPNNYVTKI [G41N], -0.87 ± 0.14.
Under PQVPQCKALYAYDAQDTDELSFNANDIIDIIKEDPSGWWTVRLRGKQGLFPNNYVTKI [G41V] stands -0.9 ± 0.15; under PQVPQCKALYAYDAQDTDELSFNANDIIDIIKEDPSGWWTPRLRGKQGLFPNNYVTKI [G41P], -0.826 ± 0.18.
Under PQVPQCKALYAYDAQDTDELSFNANDIIDIIKEDPSGWWTQRLRGKQGLFPNNYVTKI [G41Q] stands -0.767 ± 0.23.
